What was measured:
Assay in all cases: fluorescence anisotropy
PABP1 (WT) [1] = target: T1, PABP1 (WT) (human, UniProt P11940 1-636)
scPABP1 = scPABP1 (human, UniProt P11940 1-636, C43S;C128S;C132S)
PABP1 (WT) [2] = target: T1, PABP1 (WT); remark: listed apart in the source

T1 sequence (P11940 whole entry): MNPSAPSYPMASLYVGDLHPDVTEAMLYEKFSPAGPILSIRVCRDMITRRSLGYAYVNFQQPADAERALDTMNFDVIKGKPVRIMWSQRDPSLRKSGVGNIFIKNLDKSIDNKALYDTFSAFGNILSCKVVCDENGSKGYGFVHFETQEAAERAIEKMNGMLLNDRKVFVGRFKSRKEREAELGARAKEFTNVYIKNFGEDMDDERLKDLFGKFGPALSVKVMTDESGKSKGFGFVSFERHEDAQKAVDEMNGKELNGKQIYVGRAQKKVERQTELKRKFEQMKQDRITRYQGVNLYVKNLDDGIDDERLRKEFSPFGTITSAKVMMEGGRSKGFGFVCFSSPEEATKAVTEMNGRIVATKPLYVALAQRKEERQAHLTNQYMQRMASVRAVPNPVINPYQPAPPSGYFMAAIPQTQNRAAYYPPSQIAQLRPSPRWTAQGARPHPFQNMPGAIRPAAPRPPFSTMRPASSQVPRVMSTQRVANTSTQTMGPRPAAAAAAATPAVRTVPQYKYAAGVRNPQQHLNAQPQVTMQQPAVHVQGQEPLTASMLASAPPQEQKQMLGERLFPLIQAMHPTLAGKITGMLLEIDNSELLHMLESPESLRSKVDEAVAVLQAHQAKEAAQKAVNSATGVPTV
scPABP1, sequence (P11940 whole entry C43S/C128S/C132S): as the sequence (P11940 whole entry) above, with C43S, C128S, C132S counted along it

Binder | binding result (PABP1 (WT) [1]) | Kd (scPABP1) [nM] | Kd (PABP1 (WT) [2]) [nM]
CCCCCCCCCCCCCCCCCU (ssRNA) [Poly (C)18] | no binding |  | 
AAAAAAAAAAAAAAAAAU (ssRNA) [Poly (A)18] |  | 5.1 ± 0.6 | 2 ± 0.5

— PMC6205234
